Assay [1] has as its target proteins from 32P or 35S-labeled HeLa cell lysates. In words: GST pull-down from labeled HeLa lysates pretreated with CIP, PP1 and PP2A.
Assay [2] has as its target WFYpSPFLE. In words: fluorescence anisotropy, GST-WW-domain on fluorescein-labelled peptide. Background: In fluorescence polarisation assays a small probe gives low polarisation when free and higher when bound to something large.
In the next assay the target is EQPLpTPVTDL. Described as above.
The target in assay [3] is WFYpSPFLE. In words: fluorescence anisotropy; high affinity site.
Assay [4] concerns the target WFYpSPFLE. In words: fluorescence anisotropy; low affinity site.
The target in assay [5] is Amyloid Precursor Protein Peptide … (pT-668). In words: ELISA on amyloid precursor protein peptide; binder not labelled in the row, taken as Pin1.
For assay [6], the target named is tau peptide (pT-231), SEQ ID NO: 20. In words: ELISA on tau peptides.
The target is the same in assay [7]. In words: ELISA on tau peptide. In general terms: In an ELISA, binding on a coated surface is turned into a signal by an enzyme label.
For assay [8] the target is unchanged. In words: ELISA on tau peptides. The source holds these as a separate data set.
Assay [9] concerns the target WFYpSPFLE. In words: fluorescence anisotropy with fluorescein labeled Pintide; high affinity site.
The target of assay [10] is WFYpSPFLE. In words: fluorescence anisotropy; Table 2 prints 1.0 for this pair.
Assay [11] concerns the target tau peptide … (pT-231), SEQ ID NO: 29. In words: ELISA on tau peptide.
In assay [12] the target is GST-WW-domain of Pin1 (human) (UniProt Q13526). In words: competition with MPM-2 antigens for GST-WW-domain of Pin1, pull-down and MPM-2 immunoblot. A general note: Immunoblotting shows a protein as a band on a membrane.
A further assay addresses GST-Pin1 (human) (UniProt Q13526). In words: competition with MPM-2 antigens for GST-Pin1, pull-down and MPM-2 immunoblot.

Where two headings read alike, the source gives them in different places.

This note sets out measurements from US20050282740A1.

Take “GST-Nedd4 WW-domain-1 (from UniProt P46935 249-282)”: in [1], the fold reduction of binding after pretreatment of lysates with Ser phosphatases worked out at 10 fold.
Regarding “GST-Nedd4 WW-domain-2 (from UniProt P46935 405-438)”, the fold reduction of binding after pretreatment of lysates with Ser phosphatases in [1] turned out to be 10 fold. Besides, the dissociation constant Kd – broadly, a measure of binding affinity in units of concentration – came to 10000 nM in the assay with WFYpSPFLE [2] and 20000 nM in the assay with EQPLpTPVTDL.
For “GST-Pin1 (from UniProt Q13526 1-163) (enzyme)”, the Kd stood at 1200 nM with WFYpSPFLE [3] and 13000 nM with WFYpSPFLE [4].
With “GST-Pin1^R14A (from UniProt Q13526 1-163) (enzyme)”, the Kd is 2000 nM with WFYpSPFLE [3] and 13500 nM with WFYpSPFLE [4].
Turning to “GST-Pin1^S16A (from UniProt Q13526 1-163) (enzyme)”, the Kd in the assay with WFYpSPFLE [3] amounted to 1200 nM; in the assay with WFYpSPFLE [4], 10500 nM.
In the assay with WFYpSPFLE [4], “GST-Pin1^S16E (from UniProt Q13526 1-163) (enzyme)” gave a dissociation constant Kd of 10500 nM.
In the case of “GST-Pin1^S18E (from UniProt Q13526 1-163) (enzyme)”, the Kd in the assay with WFYpSPFLE [3] was 1000 nM; with WFYpSPFLE [4], 12000 nM.
“GST-Pin1^W34A (from UniProt Q13526 1-163) (enzyme)” returned a Kd with WFYpSPFLE [4] of 14000 nM.
Take “GST-Pin1^Y23A (from UniProt P08515 1-218; Q13526 1-163) (enzyme)”: the Kd with WFYpSPFLE [4] was found to be 13500 nM.
“GST-WW-domain of Pin1 (from UniProt Q13526 1-54)”: the equilibrium dissociation constant (Kd) with WFYpSPFLE [2] came out at 1000 nM; with EQPLpTPVTDL, 2200 nM.
Regarding “Pin1 (from UniProt Q13526 1-163) (enzyme)”, the dissociation constant Kd amounted to 1200 nM with WFYpSPFLE [3]; 40 nM in assay [6]; 25 nM in assay [8]; 1200 nM in the assay with WFYpSPFLE [9]; 11000 nM with WFYpSPFLE [4]. Besides, the results for the Binding (OD @ 405 nm) in assay [5] and in assay [7] were 1.81 OD 405 nm and 1.46 OD 405 nm, respectively.
“Pin1 PPIase domain (from UniProt Q13526 47-163) (enzyme)” displayed a Kd in the assay with WFYpSPFLE [4] of 15000 nM.
Turning to “Pin1 WW-domain (from UniProt Q13526 1-54)”, the Kd with WFYpSPFLE [3] stood at 1000 nM; in the assay with WFYpSPFLE [10], 1200 nM.
In assay [11], “Pin1^R14A (from UniProt Q13526 1-163) (enzyme)” had a Binding (OD @ 405 nm) of 1.3 OD 405 nm. In the assay with WFYpSPFLE [9], the equilibrium dissociation constant (Kd) stood at 2000 nM.
Substance “Pin1^S16A (from UniProt Q13526 1-163) (enzyme)” returned a dissociation constant (Kd) with WFYpSPFLE [9] of 1200 nM. That is a single-digit micromolar value.
The same measure, in the same setting: to “Pin1^Y23F (from UniProt Q13526 1-163) (enzyme)” belongs 5000 nM.
Turning to Pintide (WFYpSPRLKK) (peptide), in assay [12], the peptide concentration at which significant competition was detected was 50 µM and the peptide concentration of complete competition lay in the range of 250 to 500 µM. For the same substance, in the assay with GST-Pin1 (human), the peptide concentration at which significant competition was detected was found to be 50 µM and the peptide concentration of complete competition is 250 to 500 µM.
